Laboratory results reported in the DeepSol protein solubility set.

Test: soluble on expression in E. coli; label from the status in PepcDB or PDB records

Soluble on expression in E. coli, not soluble:
MGSDKIHHHHHHSCTSQKKKLAKMHTEDTIVKAQLIQHTKESLLSPYQHVNFQLDLTKNKTAFYGYNTGSKWELWVKTDSTITFKYDGEEMVFSSAKTTEAQDNPVVKYHSKTIVSNPSQPGLKKSITVMIRDEKYLDEIQGTYVPLSVRIEVEDHTNKTTVIYAGGGFYVVNPIIHDIWVLDSMSNVKVSAENFPLGAPRLEFHLDGGKIYGFSGCNEITATFYTIQNQIQLNSEISTLKSCVHVPLEPLFMGALANKRYYYSFEERRLKLKHRDGSILSFKKVD
MGSDKIHHHHHHSDEEDGGSGGNLIYGGVSVSQEVLAHKPMLEKYAREYGIEEYLNVLLAIIQVESGGTLEDVMQSSESLGLPPNSLSTEESIKQGCKYFSELLAAAETKGCDLNSVIQSYNYGGGFLDYVAGHGKKYTFELAESFARDKSGGKKVTYTNPVAVEKNGGWRYSYGNMFYVLLVSQYLTVAQFDDETVQAIMEEALKYEGWTYVYGGDSPSTSFDCSGLVQWCYGKAGIALPRTAQEQYNVTQHIPLSEAKAGDLVFFHSTYNAGTYITHVGLYVGNNRMYHAGNPIGYADLTGSYWQQHLAGAGRIKQ
MGSDKIHHHHHHSDFLNLTPYSEITAENFYQNEEDFRQAVNGAYEPLRNMYNTEEWNLGEAKSDNTTYIIHIAKSSLDGEDPDQFLETSTNGNVGTKYNNCYVIIGRCNRIISEIDQADFDAEAKSNLKGQALFLRAFCYFNLVQYFGGVPLHTTPSTVYEEAFKPRASVDEVYEQIMKDAQEASDLLPVKSRQEVGRVSKGSAQTLLGNVYMVLKRWAEAEQTLKEVVSSGEYELLADYGSIYSISNKNHKESIFEIQYMQDASLGQQSDFIYRFLPYMTNPSAITGTTPNPCPSNVDHGGFNTPTIDLINAYEKGDKRLDASIGMVEGKLTDSYALDATGVKSIVDYEPAPGITAYPFIKKYFHEHIKPYYTDDNWPVYRYAEVLLFLAEAINEQNRPDEAIHYLNDTFGQASIRGRAGLAPVKSQNVDALREAIYQERRIELAFENKRWTDLLRTGRAVEVMTRHGQKIKANPESYYWPDGVQPVANAYLFNPDKCLLPIPLREIDLNSELKQNPGY
MGSDKIHHHHHHSVQSIINNPAVDPHDYEPTTKVGKSVASADLVVASGIGYDGWMDKVVKSADKSKNYLRVADDLMNKKEGDNEHIWYDPRTMSKLANTLADKFAKKDPADKATFKANAKKYIASLDNLNTLINKLKSKVNGQLVDVSEPVFGYALDYLGYKVNDDHFSKSTEDGTDYSAKDIHGIETDIKEKKIAFFVNNIQASSKTVNQLVKLAEQNNVPVLKVTETLPKGKNYRTWMTSQYQQLEKIQDQATNSAK
MGSDKIHHHHHHTEDKDWSGGLKNSDLVFQTYLPTEGAKGTELSIRGNNFGEDISQVQVWVNEKEAEVISVTSTRIMARVAEASGSGVVKVRVGEVVYSYPDLFSYGYIRNVYTVAGNGQGTTVDGAYLQASVQWPIVMVYDKWDDAILFLQDEGEHRIRRMKDGKIETLCSTKSLVNNARSICFSLDGDTLFIGNDNANNYVANPVAVGMVTRKGGFKDLKSYIPSEKLAQPHINGIAVNPVDGSLFTYHWGRHVFRYNKATETCEYVITRDQFNELVVGLFPDADGNMQNIGGDGGYGGLAFSPDGKTLYWNGRDPYQGILKADYDLVTKKCTNLTRFAGNGVWGIIDGQGVSSRMDQPNQIAVDAEGNLLVTTVYGRTVRKITPEGYVSTYAGIGYQTGYVDGLAAEAKFNKPYGIAIDAQGNVYVGDCENWRIRVIKEE
MGSDKIHHHHHHVALAIPQIHAHEHSDEQLMQRYAQGDSQAFEQLYLKHKGALYRYFVRQLGDKQLAEDLYQETWGRVIRAAVNYQVSAKFSTWLYRIAHNLLIDHVRAVKPVDFIASDTDVTGLDTFEGCDQDKPDIHWQEAQKSLLLKTCISLLPQVQKEAFILNIEMGFTAAMISDIAGVTLEATKSRIRYAYQSLKECVNAKWQEAGHE
MGSDKIHHHHHHVDKFLYIAMSGAKQNLNSLSIRANNLANANTDGFKADLEQSRSMQAFGEGLPTRVFAMTENPQASFRHGPINSTARDLDVAVKGDGWIAVEDADGNEAYTRAGSLKFDETGLLTNSQGRPVMGDAGPIVLPLPIDKVEIAQDGTITVRPQGATAEVVEEVARIKLVNPGNQNLMRGDDGLFRMMNGTTAPQDETVALESRAVEGSNVNPVEEMVALIDIQRQFELQVKMMKTAEENDKASAQLVRIG
MGSDKIHHHHHHVDPVVLLTSVSALTQTQKPCRGRRNARDRIPTCSQETLEGKALALRVAVVGGGPAGSCAAETLVKAGIETYLIERKLDNAKPCGGAIPLCMVSEFDLPAEIIDRRVRNMKMISPSNREVNINLDNADEYIGMTRREVLDGFLRDRAAKLGTKLINGTLFRLELPKGDRDPYVLHYADHSNGSLEGIPSTLEVDVVIGADGANSRIAKAIDAGDYNYAIAFQERIRLPEDKMHYYENLAEMYVGGDVSPDFYAWVFPKYDHVAVGTGTMHVNQRLIKKLQAGIRARAANRLEGGKIIKVEAHPIPEHPRPRRVVGRAALVGDAAGYVTKSSGEGIYFAAKSGRMCAETIVETSNNGARIPTEADLKQYLRRWDKKYGTTYKVLDLLQTVFYRSDATREAFVEMCDDKDVQRLTFDSYLYKTVVPANPLVQLKITAKTLGSLLRGNALAPAEYKPIDAA
MGSDKIHHHHHHVGALLSKITATDLASTLTGDPEALHVHLTLVARDVSIKGHTVKIHCHCLTVDGNGRVQPHRLAEFMRNAVVDYAIPRSKVADAKARDLKYNSTEATTELVERAKRSFTDLANTGEGGEMLLFLLAERFLKLPQILCKMDLKTDTRMHYHGADGVYAGVTPSGTLKLYWGESKIYKKVGDAIRDCLASLAPFLIEPEHEDAERERDLILLSDKADLTNSELTGALKRYFDRSSEMSTRVQYCGVALVGFDAPFYPASDVKVLADQIVDGSRRALSDWSDKIGARLAAEKLSDMEIQLFCIPLPSADGFRAAFLKAMGIKGG
MGSDKIHHHHHHVGEHGNVNLRAENCRLKGKDIIVLYRDELDLSSEQWLELLQDNTVFKDEDILLVLELYKCNNCREYASVLADSLGVASHSVLNLQIGRLGKRIIARYPDIKYPTREDGVVRYWHIPFWGEDGEKKGHYYWQLRPELKEALKMLKSNQKRKIFALHGEVQLAQEVDEEQTEKLYEGAKIQIVVNAYERNIKARQICIDKYGYKCSICDFDFEEFYGMLGSDYIEVHHLIPLHEINKEYRVDPINDLRPVCPNCHAMLHRAGISYEELKNKIESEC
MGSDKIHHHHHHVIRRAKPLLGTLVEIAAESLPHSGSEIPLEDKALEAAMTAAFSRVTHIGRLLSFHQQDSELNQLNRQPGTWIRVSQDSLRVLKLAKWLGKASNNLFNCTVGGEMMSRGALPAYLGMPLLLQGEWQDIEIKDNQVRLARPLILTLDGIAKGYAVDMAVSELRRAGVGGGWVNAGGDLRVFGSASLNVLCRGPKGLSQKICVSNMALASSRVSQTLSHDYPALLLPTGNVTDVNIDLESERIVSVSAPFAWRADALTKVAGYLSSDSAADKIAHLGGRLVSFE
MGSDKIHHHHHHVKDGFDLVDTGDPFDTITPVIPISDRPRSQSVVAGTLNDPYRRQAVADARSLWRKSIPGSRGVVAAYLASQGIQLDEIPANLRFVLDHPYMKKSGGLYHELHRGPCVLGGIFSEAGQLLGVNQIWVDPKPPHGRASIQMDGDHMPAEIVRGSCKGGFLPLVWPEAATALVVARSLEAALRAYASRPSGLEDAAYWAVVDLKVMSGKMQRQKGVRYSGLPDLSDDTSFVAPHWVKRLVFLQEDDRTGTRQKLESGLKRSMHVRPGLRASIVRIGSAAKGGV
MGSDKIHHHHHHVKSDYYKEPIVINTDALIPPSPSDDMWKNRKRAYYMYDAPDVPTCSIVVTGYNRLHKTKYCVECILKYTRDVDYELILVDNGSDDGTLDFFQSVPYENKTIIRMTQNKGATLPFKYYINILKGKYIVNISNDIYVTQNWLSNLLKCYQSDPKIGFVEPVSSNVSNLQEVDLGFSDFDDMQKKAAAFNQSDPAKWEERLRLISVINVFLRDVLDNVGINDAAYFYDFIEDDLCARIRRMGYKLVLCRDTWICHDHDFRNLEDKDPVAFQASLEHGRAVYRKKYYGIDPWDDINNFELTLLAQLDTAKIPRAVKALTVDVRCGAPALEIRNRLKRRGITDVASYAFTTAAKYYLDLQTVCSEVQCDRIDFIQQHYANGTFDLVVLGEPVNTYPLPVRLLQNLYDFLKPGGLLLFKVRNTDDYRAFLRSIGMEVASDPDLPASTPLNEVLACLKLFGAVDCTVAGELESISVADQEFLMNKLKAANPNADQATLNRLCIKDYCIKVIRK
MGSDKIHHHHHHVLETFETVAKAVADPNRVRILKLLESGELCVCQITAVLDLAAATVSKHLSLLKAAGLLQQRREGKWAYYRLADRALNPYAPAFLGLIGATLADDPTLTEDARILSKVNALPLQVLCDQGRAALDLTRPTSPAPSCCGTPMMTETSFNVLFLCTGNSARSILAESILNREGAGKFRAYSAGSHPKGQIDPTVLALLKKTNHPTETLRSKSWDEFAAPGAPTLDFVFTVCDNAAGEVCPIWPGQPMTAHWGVPDPAGFVGSEAEKAAFCGEVMRLLRTRISIFAALPIASLDRLSLQRRLKEIGKVALESRETRESGVL
MGSDKIHHHHHHVPMGKLIASLVDIVKKNKFVDDTQKALFDNFENTKRVNVYIDDLDRGWEGRKEDIRRISALLNAVRDISNEMDNVHFMISLRSDVYYLVRTSDESTDKISGSVIWYTWDRHQILALLAKRVETFFGRDISENSLMGMHQSKIAQYLDPIMTQHFEGKGKWENAPIYRILMSLIRNRPRDLVMICTLAARNARKKGRSKILTEDLQSIFEDYSLERIQDIENEFKSELPEIRRLLFALKPSAKKSSKFSDLYVYTTDQVEAKIQSASANAPFYFSNNNKQATSEELHYFLYKINFLTARRKNKDDVLVRKTFEENKYLTGRFVDFGFGWEVHPAYRWALEPDDSESIYARLDLLDFE
MGSDKIHHHHHHVREVSKEKGKIDLVSGAASTPLTNDKCSPTGFHWTYDTYALANGTGNAVVKNGGKTWFFLTADYAFGHNLQAQTEKVVKANGGEVKGAVKHPFPNSDFSSFLLQAQASGAQIIGLANAGADTINAIKQAKEFGITQAGQQLAGLLVFITDIHSLGLETAQGMMLTTGFYWDMDDQTRAWSKRWSEKMGNGKMPSMVHAGTYSQVLHYLRAAAAAKTDEGIKVADEMRKLPINDFFAKNGKIRADGRMVHDMYLAQVKKPSESKGPWDYYKIVRTIPGDEAYQPLSESTCSLVKK
MGSDKIHHHHHHVRFIMKTNLFTSLLKKCIYGLSWFFPRQGNKAVFGCYKNLFADNSKYLYLHWHKNKFMHVIWISGDASLVNALRKKGFIAYERWSLEGVYHALTARFYIYNSYIGDVNQWFASGSIKINLWHGSPLKRIEFDIDHGPLAHKYQSNSYWQKTWHSLLYHQEYVRPQLMLSPSPLVDRLFCSAFRLQKKQLLSCGNPRTDFYRRYPDKCQSINSKPDGTSYKKVILYAPSWRDANLSNTETVQSPYEKAFNWGVLSQFLVNSDCLFLLRLHPNERHYAKHFSAYPNVRDISSWEDVYGILHQVDLLLTDYSSLFIDVLPLNIPIVFYLFDHESYIKNSRNCYEYSQCLPQAGLIAYGFEELINILKNNTSKKQTETLHLAYTQLQKLYWQEMNEHSDCFELLERYICRRNLLKSPLNTQIS
MGSDKIHHHHHHVRLWIPHVTRPTVQPASSYATYSVMPGATVKELADLIGVSTTAVRDHLVHLQAEGMVEVTSERSGPGRPRLVYSLSEKAQKSFPKQYDRLISTLLRELIELEGEGKVEQLLDRVSQRLASEYADRMAGSDVAARLNELRALLEQRGVPAEIDPEGDVLRLFACPYYDVAADYPEVCSMERRMIEYVLGEKLVLEDTIRAGAHNCRFVLRPQDIPLTMTPPAADPTTEV
